The target of series [1] is Tt-RuvC as crystallised in complex with a synthetic Holliday junction (T. thermophilus) (UniProt Q5SJC4). Briefly: crystal structure; Tt-RuvC with synthetic Holliday junction (oligonucleotides J221 and J222), crystals from 0.3-0.5 M ammonium phosphate; molecular replacement, 3.75 Å; asymmetric unit holds a RuvC dimer and one HJ.
Series [2] addresses T1, Tt-RuvC E70Q T11C (Thermus thermophilus, UniProt Q5SJC4 1-166, E70Q;T11C).
T1 sequence: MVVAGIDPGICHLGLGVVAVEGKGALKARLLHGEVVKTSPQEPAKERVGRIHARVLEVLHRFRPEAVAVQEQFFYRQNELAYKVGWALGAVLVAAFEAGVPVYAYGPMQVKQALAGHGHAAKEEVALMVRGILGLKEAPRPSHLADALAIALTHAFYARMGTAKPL
Briefly: site-specific thiol cross-linking; 5 mM Mg2+, 100 mM KCl; most efficient; Cross-linking: 100 mM NaCl, 10 mM HEPES pH 7.0, 0.5 mM DTT, 15% glycerol, 5 mM MgCl2 (+100 mM KCl for backbone thiols), protein:DNA 1:1, 37 C 2.5 h then 25 C overnight. The following applies: protein: recombinant; tags: N-terminal His-tag; chain copies: 2; Holliday junction of 4 strands, immobile.

Another series has as its target T2, Tt-RuvC E70Q M108C (Thermus thermophilus, UniProt Q5SJC4 1-166, E70Q;M108C).
T2 sequence: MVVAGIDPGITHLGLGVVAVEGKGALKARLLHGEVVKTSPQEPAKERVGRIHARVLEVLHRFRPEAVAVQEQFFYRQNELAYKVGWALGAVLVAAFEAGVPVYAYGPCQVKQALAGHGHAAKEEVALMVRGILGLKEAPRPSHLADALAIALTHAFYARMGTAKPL
Briefly: site-specific thiol cross-linking; 5 mM Mg2+, 100 mM KCl; Cross-linking: 100 mM NaCl, 10 mM HEPES pH 7.0, 0.5 mM DTT, 15% glycerol, 5 mM MgCl2 (+100 mM KCl for backbone thiols), protein:DNA 1:1, 37 C 2.5 h then 25 C overnight. The following applies: protein: recombinant; tags: N-terminal His-tag; chain copies: 2; Holliday junction of 4 strands, immobile.

Series [3] addresses T1, Tt-RuvC E70Q T11C. Briefly: site-specific thiol cross-linking; 5 mM Mg2+, 100 mM KCl; single modification; Cross-linking: 100 mM NaCl, 10 mM HEPES pH 7.0, 0.5 mM DTT, 15% glycerol, 5 mM MgCl2 (+100 mM KCl for backbone thiols), protein:DNA 1:1, 37 C 2.5 h then 25 C overnight. The following applies: protein: recombinant; tags: N-terminal His-tag; chain copies: 2; Holliday junction of 4 strands.

Series [4] has as its target T3, Tt-RuvC E70Q P40C (Thermus thermophilus, UniProt Q5SJC4 1-166, E70Q;P40C).
T3 sequence: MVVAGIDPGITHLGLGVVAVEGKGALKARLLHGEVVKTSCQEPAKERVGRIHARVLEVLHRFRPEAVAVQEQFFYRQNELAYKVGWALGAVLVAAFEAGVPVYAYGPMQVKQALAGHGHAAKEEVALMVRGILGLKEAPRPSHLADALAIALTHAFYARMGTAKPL
The series is described as follows: site-specific thiol cross-linking; 5 mM Mg2+, 100 mM KCl; most efficient; Cross-linking: 100 mM NaCl, 10 mM HEPES pH 7.0, 0.5 mM DTT, 15% glycerol, 5 mM MgCl2 (+100 mM KCl for backbone thiols), protein:DNA 1:1, 37 C 2.5 h then 25 C overnight. The following applies: protein: recombinant; tags: N-terminal His-tag; chain copies: 2; Holliday junction of 4 strands, immobile.

Series [5] deals with T3, Tt-RuvC E70Q P40C. Briefly: site-specific thiol cross-linking; 5 mM Mg2+, 100 mM KCl; single modification; Cross-linking: 100 mM NaCl, 10 mM HEPES pH 7.0, 0.5 mM DTT, 15% glycerol, 5 mM MgCl2 (+100 mM KCl for backbone thiols), protein:DNA 1:1, 37 C 2.5 h then 25 C overnight. The following applies: protein: recombinant; tags: N-terminal His-tag; chain copies: 2; Holliday junction of 4 strands.

Another series deals with T4, Tt-RuvC E70Q R140C (Thermus thermophilus, UniProt Q5SJC4 1-166, E70Q;R140C).
T4 sequence: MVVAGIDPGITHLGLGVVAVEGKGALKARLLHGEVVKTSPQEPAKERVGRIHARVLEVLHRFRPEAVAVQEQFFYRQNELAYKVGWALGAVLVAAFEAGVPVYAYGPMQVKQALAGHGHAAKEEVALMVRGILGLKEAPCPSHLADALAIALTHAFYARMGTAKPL
Briefly: site-specific thiol cross-linking; 5 mM Mg2+, 100 mM KCl; Cross-linking: 100 mM NaCl, 10 mM HEPES pH 7.0, 0.5 mM DTT, 15% glycerol, 5 mM MgCl2 (+100 mM KCl for backbone thiols), protein:DNA 1:1, 37 C 2.5 h then 25 C overnight. To be noted: protein: recombinant; tags: N-terminal His-tag; chain copies: 2; Holliday junction of 4 strands, immobile.

Series [6] deals with the molecule itself. The series is described as follows: crystal structure; apo Tt-RuvC, crystals from 0.1 M citric acid (pH 3.5) and 1.5 M NaCl; SAD, 1.35 Å; asymmetric unit holds a RuvC dimer.
A further series concerns the target T5, Tt-RuvC E70Q (Thermus thermophilus, UniProt Q5SJC4 1-166, E70Q).
T5 sequence: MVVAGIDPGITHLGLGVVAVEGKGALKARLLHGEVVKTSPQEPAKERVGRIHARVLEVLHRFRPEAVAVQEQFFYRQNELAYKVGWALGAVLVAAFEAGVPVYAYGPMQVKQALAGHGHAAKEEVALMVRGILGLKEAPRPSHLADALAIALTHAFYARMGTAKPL
The series is described as follows: X-ray crystallography (3.75 A); 0.3-0.5 M ammonium phosphate; Cross-linking: 100 mM NaCl, 10 mM HEPES pH 7.0, 0.5 mM DTT, 15% glycerol, 5 mM MgCl2 (+100 mM KCl for backbone thiols), protein:DNA 1:1, 37 C 2.5 h then 25 C overnight. To be noted: protein: recombinant; tags: none (N-terminal His-tag removed with PreScission protease); chain copies: 2; Holliday junction of 2 strands, TTT loops on two arms.

For another series, the target named is T6, Tt-RuvC E70Q L80C (Thermus thermophilus, UniProt Q5SJC4 1-166, E70Q;L80C).
T6 sequence: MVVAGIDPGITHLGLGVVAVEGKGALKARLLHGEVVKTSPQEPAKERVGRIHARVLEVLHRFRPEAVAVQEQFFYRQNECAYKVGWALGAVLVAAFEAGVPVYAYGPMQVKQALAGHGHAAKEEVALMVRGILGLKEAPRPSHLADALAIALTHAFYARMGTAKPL
Briefly: site-specific thiol cross-linking; 5 mM Mg2+; Cross-linking: 100 mM NaCl, 10 mM HEPES pH 7.0, 0.5 mM DTT, 15% glycerol, 5 mM MgCl2 (+100 mM KCl for backbone thiols), protein:DNA 1:1, 37 C 2.5 h then 25 C overnight. To be noted: protein: recombinant, tags: N-terminal His-tag, chain copies: 2, Holliday junction of 2 strands, TTT loops.

The next series concerns the target T7, Tt-RuvC E70Q R76C (Thermus thermophilus, UniProt Q5SJC4 1-166, E70Q;R76C).
T7 sequence: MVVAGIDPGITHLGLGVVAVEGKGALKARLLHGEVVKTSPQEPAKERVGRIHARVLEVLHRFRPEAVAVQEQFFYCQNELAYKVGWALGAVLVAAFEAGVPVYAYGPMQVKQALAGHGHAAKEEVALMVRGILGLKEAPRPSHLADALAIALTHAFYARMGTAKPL
Briefly: site-specific thiol cross-linking; 5 mM Mg2+; high efficiency; Cross-linking: 100 mM NaCl, 10 mM HEPES pH 7.0, 0.5 mM DTT, 15% glycerol, 5 mM MgCl2 (+100 mM KCl for backbone thiols), protein:DNA 1:1, 37 C 2.5 h then 25 C overnight. The following applies: protein: recombinant; tags: N-terminal His-tag; chain copies: 2; Holliday junction of 2 strands, TTT loops, 2 bp homology core.

The target of a further series is T8, Tt-RuvC E70Q Q77C (Thermus thermophilus, UniProt Q5SJC4 1-166, E70Q;Q77C).
T8 sequence: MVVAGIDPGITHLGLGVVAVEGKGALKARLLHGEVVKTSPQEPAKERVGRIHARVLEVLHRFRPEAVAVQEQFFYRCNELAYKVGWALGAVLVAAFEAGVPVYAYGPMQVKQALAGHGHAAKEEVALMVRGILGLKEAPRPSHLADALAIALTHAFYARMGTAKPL
Described as above. To be noted: protein: recombinant; tags: N-terminal His-tag; chain copies: 2; Holliday junction of 2 strands, TTT loops, 2 bp homology core.

Regarding “Tt-RuvC as crystallised in complex with a synthetic Holliday junction (from UniProt Q5SJC4 1-166) (enzyme)”, the stoichiometry N (in general, a count of units in the complex or per binding partner) in [1] came to 2.

B1: HJ-28bb (structured_DNA)
DNA 1: GACGGCCTCGCAATCGACTATGACCGAGCACGCGAGATGT
DNA 2: ACATCTCGCGTGCTCGGTCATTCTGCAGATGCGGAGTGAA
DNA 3: TTCACTCCGCATCTGCAGATTCTGGCTGTGGCGTGTTTCT
DNA 4: AGAAACACGCCACAGCCAGAAAGTCGATTGCGAGGCCGTC
modifications: thiol tether on phosphate after nt 24 of strands 2 and 4
Regarding B1, the binding result with Tt-RuvC E70Q T11C [2] and with Tt-RuvC E70Q M108C was “binds” in each case.

B2: HJ-29bb-h (structured_DNA)
DNA 1: GACGGCCTCGCAATCAGCTATGACCGAGCACGCGAGATGT
DNA 2: ACATCTCGCGTGCTCGGTCATTCTGCAGATGCGGAGTGAA
DNA 3: TTCACTCCGCATCTGACGATTCTGGCTGTGGCGTGTTTCT
DNA 4: AGAAACACGCCACAGCCAGAAAGCTGATTGCGAGGCCGTC
modifications: thiol tether on phosphate after nt 25 of strand 4 only; the table lists one shared single B strand (S19) for HJ-28/29
For the molecule B2, the binding result with Tt-RuvC E70Q T11C [3] is given as “binds”.

B3: HJ-29bb (structured_DNA)
DNA 1: GACGGCCTCGCAATCAGCTATGACCGAGCACGCGAGATGT
DNA 2: ACATCTCGCGTGCTCGGTCATTCGTCAGATGCGGAGTGAA
DNA 3: TTCACTCCGCATCTGACGATTCTGGCTGTGGCGTGTTTCT
DNA 4: AGAAACACGCCACAGCCAGAAAGCTGATTGCGAGGCCGTC
modifications: thiol tether on phosphate after nt 25 of strands 2 and 4
As for B3, the binding result with Tt-RuvC E70Q P40C [4] and with Tt-RuvC E70Q M108C was “binds” each time.

B4: HJ-28bb-h (structured_DNA)
DNA 1: GACGGCCTCGCAATCGACTATGACCGAGCACGCGAGATGT
DNA 2: ACATCTCGCGTGCTCGGTCATTCTGCAGATGCGGAGTGAA
DNA 3: TTCACTCCGCATCTGCAGATTCTGGCTGTGGCGTGTTTCT
DNA 4: AGAAACACGCCACAGCCAGAAAGTCGATTGCGAGGCCGTC
modifications: thiol tether on phosphate after nt 24 of strand 4 only
Turning to B4, the binding result with Tt-RuvC E70Q P40C [5] was “binds”.

B5: HJ-3bb (structured_DNA)
DNA 1: GACGGCCTCGCATTCGGCTATGACCGAGCACGCGAGATGT
DNA 2: ACATCTCGCGTGCTCGGTCATTCGGCAAGTGCGGAGTGAA
DNA 3: TTCACTCCGCACTTGCCGATTCTGGCTGTGGCGTGTTTCT
DNA 4: AGAAACACGCCACAGCCAGAAAGCCGAATGCGAGGCCGTC
modifications: thiol tether on phosphate after nt 13 of strands 1 and 3
B5: the binding result in the series with Tt-RuvC E70Q R140C is given as “binds”.

B6: RuvC protein from T. thermophilus (Tt-RuvC), unliganded (apo) crystal form (enzyme)
chain: MVVAGIDPGITHLGLGVVAVEGKGALKARLLHGEVVKTSPQEPAKERVGRIHARVLEVLHRFRPEAVAVEEQFFYRQNELAYKVGWALGAVLVAAFEAGVPVYAYGPMQVKQALAGHGHAAKEEVALMVRGILGLKEAPRPSHLADALAIALTHAFYARMGTAKPL
modifications: selenomethionine-substituted protein (SAD data)
notes: RuvC Holliday junction resolvase, Thermus thermophilus; No PDB id is printed for the apo structure; also called apo Tt-RuvC; RuvC resolvase; source: E. coli, purified (nickel column, tag cleavage, Mono-S column)
On to B6, for which the “stoichiometry N” value in series [6] was found to be 2.

B7: HJ J221/J222 (structured_DNA)
DNA 1: CAATCGGCTTTGACCTTTGGTCAATCGGCAGAT
DNA 2: ATCTGCCGATTCTGGTTTCCAGAAAGCCGATTG
Turning to B7, in the series with Tt-RuvC E70Q, the binding result is given as “binds”.

B8: HJ-8-h (structured_DNA)
DNA 1: CAATCGGGTATGACCTTTGGTCATTCGGCAGAT
DNA 2: ATCTGCCGATTCTGGTTTCTAGAAACCCGATTG
modifications: thiol on guanine 8 of one strand
Turning to B8, the binding result with Tt-RuvC E70Q L80C was “binds”.

B9: HJ-26-h (structured_DNA)
DNA 1: CAATCGGCTATGACCTTTGGTCATTGGGCAGAT
DNA 2: ATCTGCCCATTCTGGTTTCCACAAAGCCGATTG
modifications: thiol on guanine 26 of one strand
As to B9, in the series with Tt-RuvC E70Q L80C, the binding result is on record as “binds”.

B10: HJ-25-h (structured_DNA)
DNA 1: CAATCGGCCAAGACCTTTGGTCTTGCGGCAGAT
DNA 2: ATCTGCCGCATATGGTTTCCAGATGGCCGATTG
modifications: thiol on guanine 25 of one strand
In the case of B10, the binding result with Tt-RuvC E70Q L80C (2 bp homology core) is recorded as “binds”.

B11: HJ-25 (structured_DNA)
DNA 1: CAATCGGCCAAGACCTTTGGTCTTGCGGCAGAT
DNA 2: ATCTGCCGCATATGGTTTCCAGATGGCCGATTG
modifications: thiol (cysteamine) on position 2 of guanine 25 of both strands
Take B11: the binding result with Tt-RuvC E70Q R76C and with Tt-RuvC E70Q Q77C was “binds” in each case.
